Experiments:
RIG‐I = RIG‐I (UniProt O95786); experiment: co-IP; conditions: reference: API5 wild type; sites S464
MDA5 = MDA5 (UniProt Q9BYX4); experiment: co-IP; conditions: reference: API5 wild type; sites S464
p62 = p62 (UniProt Q13501); experiment: co-IP; conditions: reference: API5 wild type; sites S464
His-SRPK1 = biological target: T1, His-SRPK1 (human (amplified from HEK293T cells), UniProt Q96SB4 1-655); experiment: pull-down; purified GST-API5 (20 ng) or GST (20 ng) incubated with His-SRPK1 (50 ng) at 4 °C for 4 h; captured on GST resin; washed five times with NP-40 lysis buffer; immunoblot; conditions: both partners purified
T1 construct: SRPK1, full-length gene amplified from HEK293T cells, in pET-28a; also called pET-28a-SRPK1; source: E. coli BL21 (pLysS), purified (Ni-NTA)

binding against the reference (RIG‐I) | binding against the reference (MDA5) | binding against the reference (p62) | binding result (His-SRPK1) | Molecule
lost | lost | weaker | – | API5 (from UniProt Q9BZZ5) API5 S464A
– | – | – | binds | GST-API5 (natural protein, human, UniProt Q9BZZ5 1-524, looked up, API5, human, full-length gene amplified from HEK293T cells, in pGEX-4T-1; also called pGEX-4T-1-API5; source: E. coli BL21 (pLysS), purified (glutathione resin)) MPTVEELYRNYGILADATEQVGQHKDAYQVILDGVKGGTKEKRLAAQFIPKFFKHFPELADSAINAQLDLCEDEDVSIRRQAIKELPQFATGENLPRVADILTQLLQTDDSAEFNLVNNALLSIFKMDAKGTLGGLFSQILQGEDIVRERAIKFLSTKLKTLPDEVLTKEVEELILTESKKVLEDVTGEEFVLFMKILSGLKSLQTVSGRQQLVELVAEQADLEQTFNPSDPDCVDRLLQCTRQAVPLFSKNVHSTRFVTYFCEQVLPNLGTLTTPVEGLDIQLEVLKLLAEMSSFCGDMEKLETNLRKLFDKLLEYMPLPPEEAENGENAGNEEPKLQFSYVECLLYSFHQLGRKLPDFLTAKLNAEKLKDFKIRLQYFARGLQVYIRQLRLALQGKTGEALKTEENKIKVVALKITNNINVLIKDLFHIPPSYKSTVTLSWKPVQKVEIGQKRASEDTTSGSPPKKSSAGPKRDARQIYNPPSGKYSSNLGNFNYEQRGAFRGSRGGRGWGTRGNRSRGRLY

From paper PMC12499447, “API5 Phosphorylation Promotes Antiviral Immunity by Inhibiting Degradation of Cytosolic RNA Sensor RLRs” (Advanced Science, 2025)
